Legend:
Human NPR-B = target: T1, Human NPR-B (Homo sapiens, UniProt P20594); assay: Biacore SPR kinetic affinity binding to immobilized NPR-B; conditions: Table 32 summary of affinity
T1 construct: purchased R&D system
T1 sequence (P20594 23-458 limits assumed): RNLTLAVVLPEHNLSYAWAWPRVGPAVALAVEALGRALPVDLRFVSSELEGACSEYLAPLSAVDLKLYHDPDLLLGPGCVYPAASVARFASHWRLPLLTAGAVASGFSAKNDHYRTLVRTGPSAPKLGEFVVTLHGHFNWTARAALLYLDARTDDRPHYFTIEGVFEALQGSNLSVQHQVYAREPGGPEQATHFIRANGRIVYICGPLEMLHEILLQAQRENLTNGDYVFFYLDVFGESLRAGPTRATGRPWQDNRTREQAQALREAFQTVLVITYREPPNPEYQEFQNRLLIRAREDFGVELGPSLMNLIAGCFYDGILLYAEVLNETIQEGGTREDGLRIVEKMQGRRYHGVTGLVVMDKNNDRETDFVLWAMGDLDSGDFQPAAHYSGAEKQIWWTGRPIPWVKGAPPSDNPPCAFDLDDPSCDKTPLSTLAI
Protocol: The biological function of these purified protein was assayed for their stimulation of production of cGMP, using NPR-B receptor positive cell line, NIH/3T3 and NPR-B negative cell line HEK293 cells. The determination of cGMP was assay by ELISA using commercial CNP as standard curves. […] Surface preparation. NBR-B was immobilized at different levels in three flow cells via standard amine coupling, leaving Fc 1 unmodified to serve as a reference. All surface plasmon resonance (SPR) analysis was performed on a BIAcore 3000 system using series CM5 sensor chips. Data processing and analysis were performed using BIAevaluation software. All sensorgrams were double referenced by subtracting the response on a reference flow cell and a blank sample. Human NPR-B (R&D system) was covalently attached to a CM5 chip via amine coupling. A surface density of 6600 RU was used for measurements with natriuretic peptides Sequential injections of CNP (0.5-8 nM) were performed at a flow rate of […] (300 s for each), followed by a dissociation time of 900 s. […] Kinetic parameters were calculated assuming a simple 1:1 (Langmuir) binding. […] All SPR analysis was performed on a BIAcore 3000 system using series CM5 sensor chips. Data processing and analysis were performed using BIAevaluation software. All sensorgrams were double referenced by subtracting the response on a reference flow cell and a blank sample. Human NPR-B (R&D system) was covalently attached to a CM5 chip via amine coupling. A surface density of 3100 RU was used for measurements with natriuretic peptides Sequential injections of AMI263 (FC4-CNP) (0.125-2 nM) were performed at a flow rate of […] (300 s for each), followed by a dissociation time of 900 s. […] Kinetic parameters were calculated assuming a simple 1:1 (Langmuir) binding. […] All SPR analysis was performed on a BIAcore 3000 system using series CM5 sensor chips. Data processing and analysis were performed using BIAevaluation software. All sensorgrams were double referenced by subtracting the response on a reference flow cell and a blank sample. Human NPR-B (R&D system) was covalently attached to a CM5 chip via amine coupling. […] Kinetic parameters were calculated assuming a simple 1:1 (Langmuir) binding. […] All SPR analysis was performed on a BIAcore 3000 system using series CM5 sensor chips. Data processing and analysis were performed using BIAevaluation software. All sensorgrams were double referenced by subtracting the response on a reference flow cell and a blank sample. Human NPR-B (R&D system) was covalently attached to a CM5 chip via amine coupling. A surface density of 3100 RU was used for measurements with natriuretic peptides Sequential injections of AMI263 (FC4-CNP) (0.5-300 nM) were performed at a flow rate of […] (300 s for each), followed by a dissociation time of 900 s. […] Kinetic parameters were calculated assuming a simple 1:1 (Langmuir) binding. […] All SPR analysis was performed on a BIAcore 3000 system using series CM5 sensor chips. Data processing and analysis were performed using BIAevaluation software. All sensorgrams were double referenced by subtracting the response on a reference flow cell and a blank sample. Human NPR-B (R&D system) was covalently attached to a CM5 chip via amine coupling.

[1] = system: retinal ganglion cells (RGC); assay: NMDA excitotoxicity mouse model: RGC count by retinal Flatmount; format: in vivo, C57BL/6); conditions: AAV 4E+8 vg/eye IVT 28 days prior to NMDA
Protocol: This study was for evaluating the effect of adeno-associated viral (AAV) vectors on retinal ganglion cell protection following damage caused via N-methyl-D-aspartate (NMDA) administration in the mouse. […] Groups 7 and 8 were added to test a higher concentration of MK-801. […] This study was conducted in wild type mice (Mus musculus, C57BL/6).
300 μL of the 5 mM NMDA stock was combined with 300 μL of sterile PBS and 1 μL as injected on Day 0 for a final concentration of 2.5 mM NMDA.
300 μL of the 5 mM NMDA stock as combined with 300 μL of sterile-filtered MK-801 and 1 μL was injected on Day 0 for a final concentration of 2.5 mM NMDA/100 μM MK-801.
300 μL of the 5 mM NMDA stock was combined with 300 μL of sterile PBS and 1 μL was injected on Day 0 for a final concentration of 2.5 mM NMDA.
On Day −28 or Day 0 based on the experimental design, mice were given buprenorphine 0.01-0.05 mg/kg subcutaneously (SQ). Animals were then tranquilized for the intravitreal injections with ketamine/xylazine or inhaled isoflurane and one drop of 0.5% proparacaine HCl was applied to both eyes. The conjunctiva was gently grasped with Dumont #4 forceps, and the injection was made using a 33 G needle and a Hamilton syringe. After dispensing the syringe contents, the syringe needle was slowly withdrawn. Following the injection procedure, 1 drop of Ofloxacin ophthalmic solution was applied topically to the ocular surface with eye lube.
Eyes were enucleated and immediately fixed in 4% paraformaldehyde in phosphate-buffered saline (PBS) and stored overnight at 4° C. The following day, the eyes were transferred to cold immunocytochemistry (ICC) buffer (PBS containing 0.5% BSA and 0.2% Tween 20) until processing. Using a dissecting microscope, the eye was carefully trimmed of extraneous tissue at the limbus and, using fine curved scissors, the anterior chamber was removed. Retinas in the eye cup were rinsed with cold ICC buffer. Eye cups were placed in cold ICC buffer containing 1/100 rat anti-CNP36 (Groups 3-6 only; resuspended at 0.5 mg/mL in PBS) for 3 hours at 4° C. Eye cups were then washed extensively and stained with 1/200 donkey anti-rat Cy3 and 1/1,000 DAPI for 2-3 hours at 4° C. Groups 1 and 2 were stained with 1/500 TUJ-1 and 1/1000 DAPI, while Groups 7 and 8 were incubated with 1/1,000 DAPI alone. Eye cups were washed extensively but gently with cold ICC buffer. Using fine curved scissors and an eyelash knife, the retina was detached from the optic nerve head and removed from the RPE/choroid. Radial cuts were then made toward the center and retinas were flat mounted, covered, and sealed. 2D fluorescent microscopy images were acquired using an Olympus Bx63 upright fluorescent microscope. […] Images at 20× were acquired in 4 quadrants and a central 248.1×325.7 μm region was analyzed for RGC counts using Olympus cellSens and ImageJ software.
Groups 1 and 2 were stained with DAPI and TUJ-1 and images were captured at 20× (FIG. 10A). RGCs were counted in four quadrants, and cells/mm2 were averaged across each group.
Groups 3-8 were stained for DAPI and four images were captured for each retina at 20× approximately 600 μm from the optic nerve head. RGCs were counted in a central 248.1×325.7 μm region and cells/mm2 were averaged over each group (FIG. 10C).
The statistical analyses were performed on the Group 3-8 RGC data (one-way ANOVA followed by multiple comparisons using the Dunnett statistical hypothesis comparison).

[2] = NMDA mouse study: in-house CNP36-Fc ELISA of ocular (whole globe) and serum samples
Protocol: Animals in Groups 3-6 had terminal blood collected on Day 7. IBMX was used during blood collection to inhibit phosphodiesterase activity. […] Briefly, each syringe for cardiac puncture was pre-rinsed with a stock solution of 10 mM IBMX prior to drawing blood. All mice were sedated to a deep plane of sedation under isoflurane and euthanized via exsanguination. After each syringe was pre-rinsed with 10 mM IBMX, a 25 G needle was inserted into the heart and the animal was exsanguinated and euthanized, and blood was collected. The volume of blood collected was noted on the paperwork and the appropriate volume of IBMX was added into a 1.5 mL RNAse/DNAse-free microfuge tube. […]
Bioanalytical work and the accompanying analyses were performed at the conclusion of the study. […] Left eyes (OS) from all animals (n=8) in each group receiving the different AAV constructs were analyzed. […]
The CNP36 and CNP-Fc36 expression in ocular (whole globes) and serum samples was quantified using the commercial CNP36 ELISA kit and in-house CNP36-Fc ELISA (Example 2), respectively. […] After a 45 min incubation, plates were washed and CNP36-Fc was detected by the addition of 3,3′,5,5′-tetramethylbenzidine (TMB) substrate. The reaction was stopped by the addition of stop solution and the plate was read immediately at 450 nm along with the reference wavelength of 600 nm. […]

Q: For “AMI088: purified fusion protein Fc1-(G4S)4-CNP36 (IgG1 Fc), SEQ ID NO: 133”, which ka (Human NPR-B) is on record?
A: The ka was 4.09E+07.

Q: And the kd (Human NPR-B)?
A: The kd was 2.96E−05.

Q: And the “RGC counts compared to sham AAV + NMDA group” value [1]?
A: Its value is “higher RGC counts”.

Q: And the “CNP36-Fc expression in serum samples” value ([2]; Day 7 serum)?
A: The value was “Neither CNP36-Fc nor CNP36 were expressed”.

Q: What about the “stability of CNP36-Fc in ocular samples” value ([2]; mouse, in vivo) of the same substance?
A: Its value is “stable and thus quantifiable”.
